In article PMC12153350, “Evolution of carbapenemase activity in the class C β-lactamase ADC-1” (mBio, 2025):

Assays:
[1] = biological target: T1, ADC-1 (Acinetobacter baumannii, UniProt Q9L4R5); assay: X-ray crystal structure of acyl-enzyme (soak); settings: covalent; acyl-enzyme at Ser64; two binding modes, monomers A and B
T1 construct: gene ampC; expressed and purified as in earlier work (gene in pET24a(+)); dimer in asymmetric unit

[2] = tested on: C[C@@H](O)[C@H]1C(=O)N2C(C(=O)O)=C(SCCN=CN)C[C@H]12; assay: purified protein; settings: 50 mM sodium phosphate, pH 7.4, 22°C
[3] = tested on: C[C@@H](O)[C@H]1C(=O)N2C(C(=O)O)=C(S[C@@H]3CN[C@H](C(=O)N(C)C)C3)[C@H](C)[C@H]12; assay: purified protein; settings: 50 mM sodium phosphate, pH 7.4, 22°C
[4] = tested on: C[C@@H](O)[C@H]1C(=O)N2C(C(=O)O)=C(S[C@@H]3CN[C@H](C(=O)Nc4cccc(C(=O)O)c4)C3)[C@H](C)[C@H]12; assay: purified protein; settings: 50 mM sodium phosphate, pH 7.4, 22°C
[5] = tested on: CC1(C)S[C@@H]2[C@H](NC(=O)[C@H](N)c3ccccc3)C(=O)N2[C@H]1C(=O)O; assay: purified protein; settings: 50 mM sodium phosphate, pH 7.4, 22°C
[6] = tested on: C[C@@H](O)[C@H]1C(=O)N2C(C(=O)O)=C(S[C@@H]3CN[C@H](CNS(N)(=O)=O)C3)[C@H](C)[C@H]12; assay: purified protein; settings: 50 mM sodium phosphate, pH 7.4, 22°C

Molecule	X-ray crystal structure of acyl-enzyme (soak) [1]	Km [2]	kcat [2]	kcat/Km [2]	Km [3]	kcat [3]	kcat/Km [3]	kcat [4]	kcat/Km [4]	kcat [5]	kcat/Km [5]	Km [4]	Km [6]	kcat [6]	kcat/Km [6]
C[C@@H](O)[C@H]1C(=O)N2C(C(=O)O)=C(S[C@@H]3CN[C@H](C(=O)Nc4cccc(C(=O)O)c4)C3)[C@H](C)[C@H]12 [ETP, ertapenem]	The crystal structure of the ADC-1–ertapenem acyl–enzyme complex shows a clear dimorphism between the two monomers	–	–	–	–	–	–	–	–	–	–	–	–	–	–
ADC-1 (Acinetobacter baumannii)	–	1.3 ± 0.2 µM	0.001 s⁻¹	810 M⁻¹ s⁻¹	11 ± 1 µM	0.0034 s⁻¹	310 M⁻¹ s⁻¹	0.00037 s⁻¹	≥ 370 M⁻¹ s⁻¹	–	–	–	–	–	–
ADC-68 (Acinetobacter baumannii)	–	1.0 ± 0.2 µM	0.0036 ± 0.0001 s⁻¹	3600 ± 700 M⁻¹ s⁻¹	50 ± 4 µM	0.028 ± 0.001 s⁻¹	550 ± 40 M⁻¹ s⁻¹	0.011 ± 0.001 s⁻¹	3300 ± 700 M⁻¹ s⁻¹	3.2 ± 0.1 s⁻¹	≥ 650000 M⁻¹ s⁻¹	3.5 ± 0.7 µM	6.0 ± 0.4 µM	0.0049 ± 0.0001 s⁻¹	820 ± 60 M⁻¹ s⁻¹
